Source: patent publication US20020177180A1, “pH-indicator based assay for selective enzymes” (ThermoGen, Inc., priority 1998, published 2002)

B1: Porcine pancreas: commercial lipase from porcine pancreas (protein, UniProt P00591 1-450, looked up)
Pancreatic triacylglycerol …: SEVCFPRLGCFSDDAPWAGIVQRPLKILPWSPKDVDTRFLLYTNQNQNNYQELVADPSTITNSNFRMDRKTRFIIHGFIDKGEEDWLSNICKNLFKVESVNCICVDWKGGSRTGYTQASQNIRIVGAEVAYFVEVLKSSLGYSPSNVHVIGHSLGSHAAGEAGRRTNGTIERITGLDPAEPCFQGTPELVRLDPSDAKFVDVIHTDAAPIIPNLGFGMSQTVGHLDFFPNGGKQMPGCQKNILSQIVDIDGIWEGTRDFVACNHLRSYKYYADSILNPDGFAGFPCDSYNVFTANKCFPCPSEGCPQMGHYADRFPGKTNGVSQVFYLNTGDASNFARWRYKVSVTLSGKKVTGHILVSLFGNEGNSRQYEIYKGTLQPDNTHSDEFDSDVEVGDLQKVKFIWYNNNVINPTLPRVGASKITVERNDGKVYDFCSQETVREEVLLTLNPC
B2: Themsolysin, Type X: commercial protease (protein, UniProt P00800 233-548, looked up)
Thermolysin: ITGTSTVGVGRGVLGDQKNINTTYSTYYYLQDNTRGNGIFTYDAKYRTTLPGSLWADADNQFFASYDAPAVDAHYYAGVTYDYYKNVHNRLSYDGNNAAIRSSVHYSQGYNNAFWNGSQMVYGDGDGQTFIPLSGGIDVVAHELTHAVTDYTAGLIYQNESGAINEAISDIFGTLVEFYANKNPDWEIGEDVYTPGISGDSLRSMSDPAKYGDPDHYSKRYTGTQDNGGVHINSGIINKAAYLISQGGTHYGVSVVGIGRDKLGKIFYRALTQYLTPTSNFSQLRAAAVQSATDLYGSTSQEVASVKQAFDAVGVK
B3: Subtilisin Carlsberg: commercial protease (protein, UniProt P00780 106-379, looked up)
Subtilisin Carlsberg: AQTVPYGIPLIKADKVQAQGFKGANVKVAVLDTGIQASHPDLNVVGGASFVAGEAYNTDGNGHGTHVAGTVAALDNTTGVLGVAPSVSLYAVKVLNSSGSGSYSGIVSGIEWATTNGMDVINMSLGGASGSTAMKQAVDNAYAKGVVVVAAAGNSGSSGNTNTIGYPAKYDSVIAVGAVDSNSNRASFSSVGAELEVMAPGAGVYSTYPTNTYATLNGTSMASPHVAGAAALILSKHPNLSASQVRNRLSSTATYLGSSFYYGKGLINVEAAAQ
B4: Proteinase K: commercial protease (protein, UniProt P06873 106-384, looked up)
Proteinase K: AAQTNAPWGLARISSTSPGTSTYYYDESAGQGSCVYVIDTGIEASHPEFEGRAQMVKTYYYSSRDGNGHGTHCAGTVGSRTYGVAKKTQLFGVKVLDDNGSGQYSTIIAGMDFVASDKNNRNCPKGVVASLSLGGGYSSSVNSAAARLQSSGVMVAVAAGNNNADARNYSPASEPSVCTVGASDRYDRRSSFSNYGSVLDIFGPGTSILSTWIGGSTRSISGTSMATPHVAGLAAYLMTLGKTTAASACRYIADTANKGDLSNIPFGTVNLLAYNNYQA

Assays:
Type in all cases: biochemical
[1] = Quick E of chromogenic ester with resorufin tetradecanoate reference; conditions: substrate 1
Experimental: To reintroduce competition, resorufin tetradecanoate was added as a reference compound, FIG. 7. The initial rates of hydrolysis of (S)-1 were monitored at 404 nm and the reference compound at 572 nm in the same solution. After taking into account the initial concentrations of both substrates, the ratio of these rates yielded the selectivity of the hydrolase for (S)-1 over the reference compound, Eq 8.
A second experiment using (R)-1 and the reference compound yielded the selectivity of (R)-1 over the reference compound. The ratio of these two selectivities yields the enantiomeric ratio, Eq. 9.
Substrate solutions were the same as for separately measured initial rate measurements, but a solution of resorufin tetradecanaote 6 (0.5 mL of a 1.59 mM solution in acetonitrile) was added slowly to the vortexing solutions of pure enantiomers. It was necessary to use a 2-fold increase in the concentration of Triton X-100 to solubilize resorufin tetradecanoate. The emulsions remained clear for at least 2 hours. To measure the initial rates of hydrolysis, lipase solutions from Table 4 (100 μL) was added to the substrate emulsion (900 μL) in a cuvette at 25° C. and the linear increase in absorbances at 404 nm and 574 nm were monitored for 15 s. Rates are calculated in μmol/min/mg protein after taking into account the amount of protein in each cuvette. […] No spontaneous chemical hydrolysis was detected at 404 nm or 574 nm.

[2] = Separately measured initial rates of chromogenic esters (404 nm), estimated E; conditions: substrate 1
Experimental: The initial rates of hydrolysis of 4-nitrophenyl esters of pure enantiomers were determined to quickly estimate the enantioselectivity of several lipases towards three common chiral carboxylic acids: 2-phenylpropanoic acid, p-nitro phenyl ester (or, 4-nitrophenyl 2-phenylpropanoate), 1; 2-(4-isobutylphenyl)propanoic acid (commercially available as Ibuprofen), 2; and phenylalanine, 3, FIG. 5. The rates of hydrolysis of 4-nitrophenyl esters were conveniently determined spectrophotometrically by monitoring the rate of release of 4-nitrophenoxide anion at 404 nm, FIG. 6. The ratio of separately measured initial rates of hydrolysis estimated the enantioselectivity. The quick E of phenylalanine, 3, was not measured because of its instability in aqueous solution.
Separately measured initial rates of chromogenic esters. 4-nitrophenyl esters of 2- phenylpropanoic acid, 1, and 2-(4-isobutylphenyl)propanoic acid, 2, were emulsified in aqueous solutions according to Vorderwuibecke. A solution of (R) or (S)-4-nitrophenyl-esster (500 μL of a 7.8 mM solution in acteonitrile) was added dropwise to Tris buffer (9000 μL, 50 mM, pH 7.5) containing 0.45 w/v % Triton X-100 (Pierce Surfact-Amps) and vortexed until clear. This emulsion remained clear for at least 3 hours. To measure the initial rates of hydrolysis, lipase solutions from Table 3 (100 μL) were added to the substrate emulsion (900 μL) in a cuvette at 25° C. and the linear increase in absorbance at 404 nm was monitored for 15 s. The final concentrations in the cuvettes were 0.369 mM substrate, 0.39% Triton X-100, 45 mM Tris buffer, 4.76% acetonitrile. No spontaneous chemical hydrolysis was detected. Solutions of 4-nitrophenyl esters of phenylalanine, 3, in acetonitrile (5 IL of a 50 mM solution in acetonitrile) were added to HEPES buffer (1000 μL, 10 mM , pH 7.5). To measure the rates of hydrolysis, 5 μL of ANL solution was added and the change in absorbance monitored as above.

[3] = Endpoint method: small-scale enzyme-catalyzed hydrolysis, ee by HPLC, true E; conditions: substrate 1
[4] = pH-indicator (4-nitrophenol/BES) microplate screening of commercial hydrolases, initial rates of hydrolysis; conditions: for Activity (R): (R)-solketal butyrate 1.0 mM; for Activity (R) / Activity (S) / Activity (±): pH 7.2, 7.1% acetonitrile, 25° C.; for Activity (S): (S)-solketal butyrate 1.0 mM; for Activity (±): (±)-solketal butyrate 1.0 mM, specific activity; for Estimated E: without Triton X-100
Experimental: The hydrolases were dissolved in BES buffer (5.0 mM, pH 7.2) at the concentrations listed in Table 1 (0.5-40 mg solid/mL solution). […] CaCl2 (2 mM) was added to the protease solutions since some proteases require calcium ions to maintain their structure. For hydrolase samples with low protein content, saturated solutions (up to 40 mg solid/ml) were utilized for hydrolase samples and with high protein content were utlized, lower concentrations (typically, 1 mg solid/ml) were utilized. Each solution was centrifuged to remove insoluble material (5 min, 2,000 rpm) and titrated to a final pH of 7.2. The protein concentrations were determined using a dye-binding assay from Bio-Rad (Mississauga, ON) with bovine serum albumin (BSA) as the standard. Solutions were stored in a 96-well assay block ‘mother plate’ equipped with aluminum sealing tape (2 mL maximum volume in each well, Corning Costar, Acton, Mass.) at −20° C.
Hydrolase solutions (5 μL/well) were transferred from the mother plate to a 96-well microtiter plate using an 8-channel pipette. Assay solution (100 μL/well) was quickly added to each well using a 1,200 μL 8-channel pipette. The final concentrations in each well were 1.0 mM substrate, 4.65 mM BES, 0.434 mM 4-nitrophenol, 7.1% acetonitrile. The plate was quickly placed in the microplate reader, shaken for 10 s to ensure complete mixing and the decrease in absorbance at 404 nm was monitored at 25° C. as often as permitted by the microplate software, typically every 11 seconds. […] Data were collected for one hour to ensure slow reactions and reactions with a lag time were detected. Each hydrolysis was carried out in quadruplicate and was averaged. […] For this reason. the first 10 s of data was typically deleted from the calculation of the initial rate. Activities were calculated from slopes in the linear portion of the curve usually over the first two hundred seconds. […] To calculate specific activity (μmol/min/mg protein), the total amount of protein in each well was taken into account.
The assay was used to screen for enantioselective hydrolases in 96-well microplates. Using pure enantiomers, the initial rates of hydrolysis of each enantiomer of solketal butyrate was measured separately. […] Note that the ratio of separately measured initial rates of hydrolysis of the enantiomers is not the true enantioselectivity, so this screening provides only an estimated enantioselectivity. The true enantioselectivity is the ratio of the specificity constants (kcat/KM) for each enantiomer. By measuring initial rates of the enantiomers separately, competitive binding between the two enantiomers was eliminated. At saturating substrate conditions, the relative initial rates equal the relative kcat values; at partially saturating conditions, the initial rates also depend on the KM values. Thus, the ratio of separately measured initial rates ignores some or all of the effect of KM on enantioselectivity. In spite of this inaccuracy, the relative initial rate provides an estimated enantioselectivity.

[5] = pH-indicator screening under interfacial activation conditions (Triton X-100); conditions: 2.8 mM Triton X-100 in the wells
Experimental: The procedure was the same as above except that the BES buffer (5 mM, pH 7.2) contained Triton-X 100 (8.45 mM). Final concentration of Triton X-100 in the wells was 2.8 mM.
The reaction conditions in the assay were altered in an attempt to increase the estimated enantioselectivity toward solketal butyrate. For example, the activity of hydrolases, especially lipases, often increases in the presence of an interface. It was reasoned that this interfacial activation may also change the enantioselectivity. The hydrolase library was screened with Triton X-100 (a non-ionic detergent) added to create micelles. The reaction rates increased for eight hydrolases (three lipases and five esterases), decreased for thirty-two hydrolases, and stayed constant for twelve hydrolases. Unfortunately, the estimated enantioselectivities remained unchanged or decreased slightly for the best hydrolases: AOP (decrease from 4.9 to 4.2), ROL (decrease from 11.3 to 9.6), HLE (decrease from 12.2 to 7.6), BSP (decrease from 7.3 to 5.4). […] For example, subtilisin Carlsberg increased from 2.6 to 2.8, esterase from Bacillus stearothermophilus increased from 1.7 to 2.4 and Aspergillus oryzae lipase decreased from 4.95 to 1.8.

[6] = 0.37 mM substrate, 0.38% Triton X-100, 45.2 mM Tris Buffer, 4.76% acetonitrile
[7] = ratio of separately measured initial rates of the enantiomers

Molecule	(R)-enantiomer + ref, rate 404 nm ([1]; 0.351 mM (R)-ester + 0.071 mM resorufin tetradecanoate, Tris pH 8, 25°) [μmol/min/mg protein]	(S)-enantiomer + ref, rate 404 nm ([1]; 0.351 mM (S)-ester + 0.071 mM resorufin tetradecanoate, Tris pH 8, 25°) [μmol/min/mg protein]	Quick E ([1]; error = standard deviation for 3 measurements)	(R)-enantiomer + ref, rate 574 nm ([1]; reference hydrolysis in presence of (R)-ester) [μmol/min/mg protein]	(S)-enantiomer + ref, rate 574 nm ([1]; reference hydrolysis in presence of (S)-ester) [μmol/min/mg protein]	Initial Rate (R) [2, 6] [μmol/min/mg protein]	Initial Rate (S) [2, 6] [μmol/min/mg protein]	Estimated E ([2]; ratio of separately measured initial rates)	C [3]	eep [3]	Endpoint E ([3]; Tris buffer pH 8.0, room temperature)	Activity (R) [4] [μmol/min/mg protein]	Activity (S) [4] [μmol/min/mg protein]	Activity (±) [4] [μmol/min/mg protein]	Estimated E [4, 7]	Estimated E [4]	Estimated E ([4]; ratio of separately measured initial rates of the enantiomers, listed as subtilisin Carlsberg)	estimated enantioselectivity with Triton X-100 [5]
B1	0.000659	0.00105	1.4 ± 0.2	0.00437	0.000495	0.00403	0.0059	1.4 ± 0.1	4.0	2.0	1.1 ± 0.1	–	–	–	–	–	–	–
B2	–	–	–	–	–	–	–	–	–	–	–	0.255	0.738	0.095	2.89	5	–	–
B3	–	–	–	–	–	–	–	–	–	–	–	0.213	0.082	0.083	2.60	–	2.6	2.8
B4	–	–	–	–	–	–	–	–	–	–	–	3.08	2.29	2.14	1.24	–	–	–
